Test results as given in publication PMC7909649, “Eukaryotic translation initiation factor 5A and its posttranslational modifications play an important role in proliferation and potentially in differentiation of the human enteric protozoan parasite Entamoeba histolytica” (PLoS Pathogens, 2021).

Biological target: T1, Entamoeba histolytica deoxyhypusine synthase 1 (EhDHS1) with amino-terminal His-tag, co-expressed with EhDHS2 (Entamoeba histolytica, UniProt C4LXB8 1-331)
T1 construct: Deoxyhypusine synthase isotype 1 (EhDHS1) of Entamoeba histolytica, EHI_098350, XP_653614; the catalytically active isotype; also called His-tag DHS1; EHI_098350; source: E. coli BL21 (DE3), co-expressed with EhDHS2 from pETDuet-EhDHS1/2; in lysate and copurified on Ni2+-NTA; not shown: His tag, N-terminal, kept
T1 sequence (looked up): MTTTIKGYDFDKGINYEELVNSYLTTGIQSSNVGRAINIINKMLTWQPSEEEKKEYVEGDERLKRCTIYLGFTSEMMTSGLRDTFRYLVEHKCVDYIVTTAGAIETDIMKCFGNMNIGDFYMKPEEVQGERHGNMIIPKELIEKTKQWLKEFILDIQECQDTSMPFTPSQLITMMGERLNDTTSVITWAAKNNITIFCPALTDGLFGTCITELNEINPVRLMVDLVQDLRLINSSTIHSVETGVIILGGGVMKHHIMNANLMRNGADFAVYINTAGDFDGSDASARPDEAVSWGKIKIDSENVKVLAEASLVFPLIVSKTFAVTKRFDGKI
Test: pull-down; Co-expression of His-EhDHS1 and EhDHS2-S-tag in E. coli BL21 (DE3); lysate (50 mM Tris-HCl pH 8.0, 300 mM NaCl, 10 mM imidazole, 0.1% Triton X-100) on Ni2+-NTA resin, 1 hr at 4°C; washed with 10-50 mM imidazole, eluted with 100-300 mM imidazole; immunoblot with anti-His and anti-S tag antibodies
Conditions: partners not purified

B1: Entamoeba histolytica deoxyhypusine synthase 2 (EhDHS2) with carboxyl-terminal S-tag, co-expressed with EhDHS1 (natural protein, UniProt C4M2N7 1-336, looked up)
chain: MSITGEEFAKVTSKVLGESKEYKGEKCIGYDFDNGVDFNKVMEKMKYTGFQALNLGLCIEQVNEMRKNHAKIFLGMSSNIVSSGLREVIHYLVKNKFVDAIVVTAGGIEEDFIKTMHPTLLGDFYFKGKELYPNGYNRIGNLILPNSNYCEFEDWMDPLLLECLKEQNEHGVHWTPSKLVHKMGESINNESSIYYWAAKNNIPVFSPAITDGSIGDMIFFFSYKNEGLVLDLVQDVIKIDEMAFNAEKVGCLLVGAGIAKHHILNAMKRRGGCDYCAMLSTSIECDASDAGSEIAADRTKGFFKPECNPAKVIGDATILLPLIVASTFAQKEEPTK
notes: Deoxyhypusine synthase isotype 2 (EhDHS2) of Entamoeba histolytica, EHI_006030, XP_653426; stop codon removed to fuse the C-terminal S-tag of pETDuet; also called S-tag DHS2; EHI_006030; source: E. coli BL21 (DE3), co-expressed with EhDHS1 from pETDuet-EhDHS1/2; in lysate and copurified on Ni2+-NTA; not shown: S-tag, C-terminal, kept
  stoichiometry N: 1 EhDHS1:EhDHS2
